Assay: soluble on expression in E. coli; label from the status in PepcDB or PDB records

| Sequence | soluble on expression in E. coli |
| --- | --- |
| MKRVGKQTWVFDEDIYIRAAATAVGPLEADGPLGGYFDIWHRDLYCGEETWELAERRLMSEAVARCLQKAGVSAHDVDLFLAGDLLNQNATSNYVARELPIPFLCLFGACSTSMQTLAAAAAFVAGGLADTALVATSSHNATAERQFRYPTELGVQKPKTATFTVTGAGAALVGRTPGRWRIRAATIGKVIDAGLTNPLDMGAAMAPAAADTIEQHFRDLGTSPSDYDLIVTGDLSRVGSVIVRELLAESGYDISDVYNDCGLMIYRPDQKVFAGGSGCACSAVVTYGYLFHELDRGTFHRLFVVATGALLSQTMVQQKQSIPAVAHGVVIEAAKLEHHHHHH | not soluble |
| MMKTLLPFFGVVRVSGEDRQTFLHGQLSNDINNLQTGQACYATYNTPKGRVIANMIVVNRGGDLLLIMAQDLLEATVKRLRMFVLRAKAVFEILEDYAVGAELEASAEPLAAQEPNLAFAAQQDSDGICSIALPHGGILRIAPKNTLPPYDAAAENAWRLHEIRSGYPWICAATKETAVAQMLNQHIIGGVHFKKGCYPGQEIIARAQYRGQVKRGLAVLSGNSAAEAGSVLAADGEEAGIVLDSVQDSENFTALAVIKFSAAQKELTVPNGGIFKAVHLFFKTENAELEHHHHHH | soluble |
| MGSGILFVFAIGAIPSQAQDIGSTDRLNVENWQEWETVGEAQLTWFVFDIYRSRLKAPNGQYLVSTDVSPHPFALEINYQRDISKQQLLEVTDEQWQKLGFPKSNRQQWITQLSFIFPSIKNGDELTYVTDGDKGQIIYRQAGTKTQKMVGEITDERMNDAFLSIWLSPKTEFPKLRKQLIGQVRP | not soluble |
| MTTMTNSLISNSVSSVPESLFSSASIHRPVAINPAMLAQFSINLPVLPFESSASLGTSTTSSSRCSSTESSAAPGKIRRGRPQQEIADGQDAHSQKKRHRRLYARQYRAQMRQKVENVKSLHDEKEQLELEVKALRQAVSGLQQENAQKDFLISILQLNNQINHS | not soluble |
| MSLVERARLAEGGGWDCHFHVFDASRYTLAAGSAYQPEDASLAAFRGVCRARGIGRAVLVHPSVYGADHSSYEDALAANGDWLRGVAVVYPDEATTPDARIEHWDLLGTAGTRINRLFPGAPQHPERIVERVKPFGWHVQVLTDIVEDIGLVRRIAARDVPVVVDHFGHHPHAQLLRSAGWQDLIALVREGAAWVKLSAPYRVGAQGPAWPGAQALVDQLVQANPRQLVWGSDWPHPPDHRHPFPAPDQAAIGATIAQWLPDAQLRRQVMELNPLRLYGGTRAAGREGHHHHHH | soluble |
| MGSDKIHHHHHHMLLSMQGICKSFNGIPALRAASLEVGEAEVMALVGQNGAGKSTLIKILTGAYRRDEGAVVFAGEGVSFSMPAESQARGIATIYQEINLAPQRSVAENIYLSREPRRFGLIDRRAMRDGAAAVLRAFNLEIDVDQPVAGFSAATRQMVAIARAVTQKARLVIMDEPTSSLDEREVGILFDTIRTLKRGGVSVVFIGHRLEELYRICDRVTIMRDGKTVATAAMADMPKLALVRHMLGKELAAFEAIAKDADEGAQRPVRLSVRNAGAGVRVRDVSLTVREGEISGLAGLLGSGRTETANLIFGADRLQRGEIRYNGEARAYRQPADAIADGIGLVAEDRKVDGIIPDMSIRENMTLALLPKLARAGIVDRARQDEIVERYITALAIKCTSPDQPIKELSGGNQQKVLLGRWLCTDPKLLIVDEPTRGIDIGAKSEILRLLRRLADEGLGVLMISSELEELLAAADRVTVLSDGTSVAVLPRKELSEAALFAAMAHQVE | not soluble |
| MSFDAKSLQQVREQVAARLRLDAGRPWLMVHAGSGGSANNLSIEQYARLIIKLNQACPELQCILTAGPGEERIAEQLAAELLAHGGNGWIYRSDEGLPKFCQVMANAALFVAGSTGPLHIAAALDVPTIGFFPAHRSATPLRWRPLNSEGRHLAFSPPEDSDHPEDMSQLDPKTMAAAIARWAPPFWRTEHLEHHHHHH | soluble |
| VFNSDAPLETTIKGMKTVMLGYDCRMSQQSPAYLERIVKDVKKYKKEDTLVIVNMHWGVEYRETPTNYQTQFGHAILDAGADIIMGAHPHRLESIEKYKDKYIVYSMGDFAFGADPTLLSRMTSMFQLRFTKEA | not soluble |
| MTDVIKPDYLEYDDLLDRDEMFTILEEYFMYRGLLGLRIKYGRLFNEIKKFDNDAEEQFGTIEELKQKLRLNSEEGADNFIDYIKVQKQDIVKLTVYDCISMIGLCACVVDVWRNEKLFSRWKYCLRAIKLFINDHMLDKIKSILQNRLVYVEMSKHHHHHH | soluble |
| MKWMCSICCAAVLLAGGAAQAEAVPNEPINWGFKRSVNHQPPDAGKQLNSLIEKYDAFYLGNTKEKTIYLTFDNGYENGYTPKVLDVLKKHRVTGTFFVTGHFVKDQPQLIKRMSDEGHIIGNHSFHHPDLTTKTADQIQDELDSVNEEVYKITGKQDNLYLRPPRGVFSEYVLKETKRLGYQTVFWSVAFVDWKINNQKGKKYAYDHMIKQAHPGAIYLLHTVSRDNAEALDDAITDLKKQGYTFKSIDDLMFEKEMRLPSL | soluble |
| MPLTPLDIHNKEFTRGFRGYDEDEVNEFLDQIIKDYEAVLREKKELFDRVTDLDEKLEHFQNIEETLNKSILVAQESAEEVRRNAQKEAQLIVKEAEKNADRIINDALAKSRKIMLEMEELKKQASVYKMRFKMLIEAQLEMLNTDDWDEVTEDSGDERSEEYAE | not soluble |
| MVTHSKFPAAGMSRPLDTSLRLKTFSSKSEYQLVVNAVRKLQESGFYWSAVTGGEANLLLSAEPAGTFLIRDSSDQRHFFTLSVKTQSGTKNLRIQCEGGSFSLQSDPRSTQPVPRFDCVLKLVHHYMPPPGTPSFSLPPTEPSSEVPEQPPAQALPGSTPKRAYYIYSGGEKIPLVLSRPLSSNVATLQHLCRKTVNGHLDSYEKVTQLPGPIREFLDQYDAPL | soluble |
| MEKVVCIGCGVTIQTEDKTGLGYAPPASLTKENVICQRCFRLKNYNEIQDVSLTDDDFLNILHGIGETDSLVVKIVDIFDFNGSWINGLQRLVGGNPILLVGNKADILPKSLKRERLIQWMKREAKELGLKPVDVFLVSAGRGQGIREVIDAIEHYRNGKDVYVVGCTNVGKSTFINRIIKEVSGEEDIITTSQFPGTTLDAIEIPLDDGSSLYDTPGIINNHQMAHYVNKKDLKILSPKKELKPRTFQLNDQQTLYFGGLARFDYVSGERSPFICYMPNELMIHRTKLENADALYEKHAGELLTPPGKDEMDEFPELVAHTFTIKDKKTDIVFSGLGWVTVHDADKKVTAYAPKGVHVFVRRSLILEHHHHHH | soluble |
| EAQTETCTVAPRERQNCGFPGVTPSQCANKGCCFDDTVRGVPWCFYPNTIDVPPEEESEF | soluble |
| MENSFELMAREWHKNKADRWSLRYREEIIDTFEKDIFPFIGRRPIADIKPMELLETLKRMEKRGALEKMRKVRQRCGEVFRYAIITGRAEYNPAPDLAGALQTHKKQHLPLEHHHHHH | not soluble |
| MQDSRPHPHDWNVSTDEAKRIQRRLASEVTERALPDGGETVAGIDVSVRDDTAQAAVSVLRLPELDVVDEATHRCEVPFPYVPGLLSFREMPAVLPALERLHSTPDVFVTDSHGAAHPRRFGLACHLGVLLDAPAIGVAKSILVGAPQGELGPEKGSRVPLVDDGETVGTVLRTRTDVNPVYVSVGHRCTLDGAADLMLDCSPRYKIPEPTRQAHKLSRAEGAAALEHHHHHH | soluble |
| KSVYLQSPYFIPDNSYINAIKIAAKSGVDVHLMIPCKPDHPLVYWATFSNASDLLSSGVKIYTYENGFIHSKMCLIDDEIVSVGTANMDFRSFELNFEVNAFVYDENLAKDLRVAYEHDITKSKQLTKESYANR | not soluble |
| MVNFFRLNLSSNQAAAVTVSETAELPEALEQLGLSNSRPVLVIVGGASQTSEADFLRIQSLFVEVLAPIAQSLGAYVVDGGTDAGVMRLMGDARSQINGQFPLIGVAPTAKVILPNQTTILADDATPLEPHHSHFVLIPGSKWGDESPWIVKVATLLANGLPSITVLINGGEISFIDALNSVIAGRLVIVIAGSGRTADKIASALRGYATDERATELAASDHIQTIDLEAAPEELIDTMTNLLLNLEHHHHHH | not soluble |
| AGHMTSILSRNHVKVKGSGKASIMFAPGFGCDQSVWNAVAPAFEEDHRVILFDYVGSGHSDLRAYDLNRYQTLDGYAQDVLDVCEALDLKETVFVGHSVGALIGMLASIRRPELFSHLVMVGPSPCYLNDPPEYYGGFEEEQLLGLLEMMEKNYIGWATVFAATVLNQPDRPEIKEELESRFCSTDPVIARQFAKAAFFSDHREDLSKVTVPSLILQCADDIIAPATVGKYMHQHLPYSSLKQMEARGHCPHMSHPDETIQLIGDYLKAHV | soluble |
| MEKRRVILVTDGDEFACRAIERVAAEIGGRCISRSQGNPTKLSGEQLVELILQTPHDPVFVMFDDCGALGEGAGEQALRYVATHEQIQVLGALAVASNTHQHEWTKVHVSIDRDGVMTEYGVDKEGFRDLEIGRINGDTVYCLDRLNIPLIVGIGDIGKMGYRDHAKYGAPITRKAVELILERSGGHAGKRKETESADREAAR | not soluble |
| MGSDKIHHHHHHMTDNIKSRRSAVPGCAIHCHDCSMGTLCIPFTLNNNELDQLDDIIERKKPIQKGEQIFKSGDSLKSLYAIRSGTIKSYTITEQGDEQITGFHLAGDVIGFDGIHSQIHQSFAQALETSMVCEIPFDTLDELSGTMPKLRQQIMRLMSNEIQSDQEMILLLSKKNAEERLAAFISNLASRFGSRGFSPKEFRLTMTRGDIGNYLGLTVETISRLLGRFQKAELIEVKGKYITIVDFDSLNKLAGNNKIGR | not soluble |
| MTVKIALLGFGTVASGVPFLLKENGGKINQSAHSDIKVAKVLVKDEDEKNRLLAAGNDFNFVTNVDDILSDQDITIVVELMGRIEPAKTFITRALEAGKHVVTANKDLLAVHGAELLEIAQANKVALYYEAAVAGGIPILRTLANSLASDKITRVLGVVNGTSNFMVTKMVEEGW | not soluble |
| MILTTTHEIEGRRIERYLGIVFGEAIVGANVLRDLLAQIRDIVGGRSGAYEAELRRARETALAEMAEAARRLGADAVVGVDLDYEVLGSGNSMLMVTASGTAVKLAP | soluble |
| MVSIKEHLEELLESFDYSGDVEERIRLLRAAIGRIGNMFYGTENEEIYADQVRRIKLRLRELRETYATSEDNWRELMDNLEELRDQIERLAIRGGIIEK | not soluble |
| GPGSMAEEKIKIIVVGSVKSGKTTITNFLSGTRETATSKYYETNPLRIVETEIELDSMNFTDRRVVFSGGDAKTKRVLVQIWDLSGNSKHQAGWPAVANKADGIIFVFNPALKNGEKELSLWHKTFAVNQSELDALGNFAVRVPDKHCLVFAHHSTPPSNVAGEGLPSMPKGLEKIKVLETSLDYHSDNFKAAFDKLIESIVVARMEAEEDEVLQREGRMHF | soluble |
| MGSDKIHHHHHHMLMESVVSVFDPDLTHLPAVAHRLQFSDPESEVPLHVHRKGQLILALHGAVTCTAGNEIWIVPPNCGVWIPGGVPHSARATANAQLNYLFVEPEAANLPGSSCTLAISPLIREMVERLAEERADYLADSHAARIARVLLDELADMPRERFNLPISSHPKIRAIADALTAEPSDRRTLSDWAKQVAMSERSLARLLIRETGLTFGRWRQQLHLVVALRELASGEAVQNVAAGLGYESVNAFITMFKKALGSTPAQYFAQRHAPTKAGSGEQNRV | not soluble |

— the DeepSol protein solubility set
